In patent publication US20220306710A1 (YEDA RESEARCH AND DEVELOPMENT, published 2022):
Where no end group is shown, it is not given here.

T1: Tau1 peptide labelled with rhodamine (human, also: rhodamine isothiocyanate label, site not given here)
T1 construct: also called Tau1R; Tau-1R
T1 peptide: GLGDRKDQGGYTMHQD

T2: Tau2 peptide labelled with rhodamine (human, also: rhodamine isothiocyanate label, site not given here)
T2 construct: also called Tau2R; Tau-2R
T2 peptide: KPGGGQVEVKSEKLDFK


Assays:
[1] = target: T1, Tau1 peptide labelled with rhodamine; experiment: dot blot of mixed labelled peptides on nitrocellulose
Description: (§1) FIGS. 2A-B. Confirmation of APP and Tau peptide binding by visualization and ELISA. A) Visualization of APP and Tau peptide binding labelled by fluorescein (F) or rhodamine (R). Single labelled peptides were loaded on nitrocellulose membrane [upper row (F) and middle row (R)]. Mixtures were loaded (lower row) from left to right: APP1F+Tau1R, APP1F+Tau2R, APP2F+Tau1R and APP2F+Tau2R. Last sample was a control of APP2F+APP1R. […] B) Peptide inhibition of Tau and APP protein binding. An ELISA plate was coated with Tau protein overnight (ON) at 4° C. PBS, single peptides or their combinations were incubated ON at 4° C. as well. Next day, the plate was washed and blocked with PBS+3% BSA for two hours at RT. The plate was washed again with PBS. Single peptides or their combinations were added to the coated plate for four hours at RT. The plate was washed and APP protein was added to all wells for ON incubation at 4° C. The plate was then washed and anti Aß was added, to test the ability of the different peptides to affect APP protein binding to the Tau coated plate. The plate was developed with anti-mouse HRP (materials and methods section). Samples were in triplicates. Significance labelled as p≤0.05*, p≤0.008**.
(§2) All four candidate peptides were labelled with fluorescein. APP1, Tau1 and Tau2 were also labelled with rhodamine for visualization of peptide binding.

[2] = target: T2, Tau2 peptide labelled with rhodamine; experiment: as above
Description: as §1, §2

binding result [1] | binding result [2] | Binder
no binding | no binding | ATVIVITLVMLKKKQYTS (also: fluorescein isothiocyanate label, site not given here, also called APP2F) [APP2 peptide labelled with fluorescein]
binds | binds | HFQKAKERLEAKHRERMSQVMRE (also: fluorescein isothiocyanate label, site not given here, also called APP1F; App1F) [APP1 peptide labelled with fluorescein]
